In patent US20220089574A1, “CXCR4 gamete molecular structure and method thereof” (priority 2020, published 2022) one finds tissue uptake data, which are given here for three molecules.

Square brackets hold non-standard residues; d marks the D form. Side chains are listed from the residue outwards. Peptide text beside a SMILES is read from it. * marks the point of attachment. DOTA = O=C(O)CN1CCN(CC(=O)O)CCN(CC(=O)*)CCN(CC(=O)O)CC1; dTyr(3-I) = N[C@H](Cc1ccc(O)c(I)c1)C(=O)O; 2Nal = N[C@@H](Cc1ccc2ccccc2c1)C(=O)O; dNMeOrn = CN[C@H](CCCN)C(=O)O; 4Amb = NCc1ccc(C(=O)O)cc1 Some results are limits rather than exact numbers.

The nature of the data set: in vivo. Further details: species or system SCID mice. The note with it: SCID, mouse, iv, total radioactivity, accumulation in the tumor. The protocol: Embodiment 3: Radionuclide Labeled D-L2(-B)-L1-A is Used for Animal In Vivo imaging PC-3 human […] adenocarcinoma cells were inoculated into the forelimbs of SCID mice at 4×10^6, and about 3 weeks after inoculation, the radionuclide In-111 labeled D-L2(-B)-L1-A was used to adjust with injection water, and 469-527 μCi of radioactive drugs were intravenously injected into the tail vein, and nano SPECT/CT imaging was performed after administration at 1, 4, 24, 48, 72, and 96 hours, respectively. Nano SPECT/CT was used to track the distribution of radiopharmaceuticals in the animal body at each of the time points after administration, and analysis software was used to enter the image into the semi-definite image to obtain the SPECT value from the test substance with known activity at each of the time points. The linear ratio formula was derived between the SPECT calculated value and the actual activity, and the SPECT calculated value was then used at each target organ circled area to obtain the live/volume of each target organ with interpolation or extrapolation linear formula.
For performing the calculation we assume that every 1 mL of injection dosage is 1 g, and the circled area in the mouse body is 1 g per 1 cm^3. Furthermore, since the activity volume of the administered injection and the weight of the experimental mouse are known, each gram of In-111-D-L2(-B)-L1-A's biological distribution ratio (% ID/g) in each organ can be deduced, and will focus on organ tumor, liver, kidney and muscle into the distribution comparison and obtain ratio, as shown in FIG. 10.

With `CN1C(=O)[C@@H](Cc2ccc(O)c(I)c2)NC(=O)CNC(=O)[C@H](Cc2ccc3ccccc3c2)NC(=O)[C@H](CCCNC(=N)N)NC(=O)[C@H]1CCCNC(=O)c1ccc(CNC(=O)CN2CCN(CC(=O)O)CCN(CC(=O)O)CCN(CC(=O)O)CC2)cc1` [In-111-pentixather, metal not drawn] (cyclo([dTyr(3-I)][dNMeOrn]([4Amb-DOTA])R[2Nal]G)), the tissue uptake at 1 h is 3.24 %ID/g, the tissue uptake at 4 h was 1.54 %ID/g, the tissue uptake at 48 h turned out to be 0.5 %ID/g and the tissue uptake at 72 h was determined as 0.24 %ID/g. Further, the tissue uptake at 96 h turned out to be 0.25 %ID/g.

For `Cc1ccc(CCCC(=O)NCCCC[C@H](NC(=O)CN2CCN(CC(=O)O)CCN(CC(=O)O)CCN(CC(=O)O)CC2)C(=O)NCCCCCC(=O)NCCC[C@@H]2C(=O)N[C@@H](CCCNC(=N)N)C(=O)N[C@@H](Cc3ccc4ccccc4c3)C(=O)NCC(=O)N[C@H](Cc3ccc(O)c(I)c3)C(=O)N2C)cc1` (111In complex, metal not drawn) [I-01(-I-01)-I-17], the tissue uptake at 1 h is 7.87 %ID/g and the tissue uptake at 24 h was above 1 %ID/g.

As to `Cc1ccc(CCCC(=O)NCCCC[C@H](NC(=O)CN2CCN(CC(=O)O)CCN(CC(=O)O)CCN(CC(=O)O)CC2)C(=O)NCc2ccc(C(=O)NCCC[C@@H]3C(=O)N[C@@H](CCCNC(=N)N)C(=O)N[C@@H](Cc4ccc5ccccc5c4)C(=O)NCC(=O)N[C@H](Cc4ccc(O)c(I)c4)C(=O)N3C)cc2)cc1` (111In complex, metal not drawn) [I-01(-I-01)-I-01], the tissue uptake at 1 h amounted to 5.47 %ID/g and the tissue uptake at 24 h was above 1 %ID/g.
